Literature values, collected in publication PMC7674454.

Biological target: calbindin D9k EF2 EF-hand 2 (Bos taurus) (UniProt P02633)
Assay: SPR

calbindin D9k EF1 EF-hand 1 (from UniProt P02633)
Kd: 3 pM
